For assay [1], the target named is 26S proteasome from BALB/c mouse (mouse (endogenous in BALB/c brain)) (UniProt O35226).
The target in another assay is F-actin (UniProt P60709). Particulars: cited from earlier work.
The target in a further assay is G-actin (UniProt P60709). Particulars: cited from earlier work.
The next assay deals with CaM (UniProt P0DP23). Put plainly: SPR. Particulars: cited from earlier work.

UniProt O35226, sequence (O35226 whole entry, looked up): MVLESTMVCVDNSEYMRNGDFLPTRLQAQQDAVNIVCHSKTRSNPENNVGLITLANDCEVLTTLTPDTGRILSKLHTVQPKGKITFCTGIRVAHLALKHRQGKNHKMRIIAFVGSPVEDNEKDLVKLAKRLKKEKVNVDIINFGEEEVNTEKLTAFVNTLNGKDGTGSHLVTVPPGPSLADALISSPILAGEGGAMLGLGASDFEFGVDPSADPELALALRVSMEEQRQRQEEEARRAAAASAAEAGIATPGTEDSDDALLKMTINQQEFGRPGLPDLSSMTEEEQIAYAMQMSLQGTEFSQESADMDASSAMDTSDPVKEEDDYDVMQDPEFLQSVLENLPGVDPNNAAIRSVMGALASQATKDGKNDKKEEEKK

For the substance “Histone H1.3 human, recombinant (from UniProt P16402 1-221) (natural protein)”, in assay [1], the theoretical KD estimated from the inhibition curve of 26S-mediated MBP hydrolysis, assuming that bound 26S proteasome cannot degrade MBP (blocks m1 with m2) is 1 µM.

With MBP (from UniProt P02686), the results for the Kd with F-actin and in the assay with G-actin were 65.3 nM and 66.6 nM, respectively.

Take MBP (from UniProt P04370): the Kd in the assay with CaM was 200 nM.

As to MBP (from UniProt P81558), the Kd with CaM is 148 nM.

What is called Kd is the concentration at which binding is half-saturated.

(Values after PMC4172982.)
